The target in the assay is PRO-C17 monoclonal antibody. The assay is described as follows: competitive ELISA; standard peptide competes with plate-bound biotinylated … for the HRP-labelled mAb. A general note: An ELISA detects its analyte on a solid surface through an enzyme-linked reagent.

The record followed here is patent US20260266825A1.

For orientation: IC50 means the midpoint of a concentration-inhibition curve. The low end stands for greater potency in that assay, the high end for weaker potency in that assay.

B1: 30 amino acid standard peptide (…) (peptide)
peptide: QGMAPAAGADLDKIGLHSDSQEELWMFVRK
As for B1, the IC50 came out at 2.1 ng/mL, the Mean IC25 is 0.8 ng/mL and the Mean IC75 was 5.5 ng/mL.
